Results on 94 variants are retold here after the supplement of paper PMC10567573.

The chains are these.
B1: FUNDC2 (parent)
chain: YIKVDWQRVEKDMKKAKEQLKIRK
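Note: lentivirally expressed fusions sorted by FACS into six bins by GFP to DsRed ratio, PSI derived from sequencing read proportions per bin multiplied by bin number.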

In the series the parent is B1. In words: protein stability index of a GFP-peptide fusion (GPS, HEK-293T) (PSI 1-6); higher = more stable. The following applies: c terminus: a fixed tail appended.
As for YIKVDWQRVEDDMKKAKEQLKIRK [K11D], the protein stability index is 2.06.
Turning to YIKVDWQRVEYDMKKAKEQLKIRK [K11Y], the protein stability index was found to be 1.55.
On to YIKVDWQRVEEDMKKAKEQLKIRK [K11E], for which the protein stability index was 2.01.
On to YIKVDWQRVEADMKKAKEQLKIRK [K11A], for which the protein stability index was 2.37.
The result for YIKVDWQRVEIDMKKAKEQLKIRK [K11I] reads 1.78; that for YIKVDWQRVEMDMKKAKEQLKIRK [K11M], 1.57; that for YIKVDWQRVELDMKKAKEQLKIRK [K11L], 1.46.
With YIKVDWQRVEVDMKKAKEQLKIRK [K11V], the protein stability index was 2.16.
To YIKVDWQRVEKDAKKAKEQLKIRK [M13A] belongs 1.24; to YIKVDWQRVEKDHKKAKEQLKIRK [M13H], 1.82.
To YIKVDWQRVEKDDKKAKEQLKIRK [M13D] belongs 1.83; to YIKVDWQRVEKDEKKAKEQLKIRK [M13E], 1.87; to YIKVDWQRVEKDTKKAKEQLKIRK [M13T], 1.4.
Regarding YIKVDWQRVEKDCKKAKEQLKIRK [M13C], the protein stability index was 1.73.
To YIKVDWQRVEKDVKKAKEQLKIRK [M13V] belongs 1.95.
Consider YIKVDAQRVEKDMKKAKEQLKIRK [W6A], for which the protein stability index was 3.39.
As for YIKVDPQRVEKDMKKAKEQLKIRK [W6P], the protein stability index is 3.15.
On to YIKVDFQRVEKDMKKAKEQLKIRK [W6F], for which the protein stability index worked out at 2.63.
The result for YIKVDYQRVEKDMKKAKEQLKIRK [W6Y] reads 2.24; that for YIKVDLQRVEKDMKKAKEQLKIRK [W6L], 2.28.
The result for YIKVDMQRVEKDMKKAKEQLKIRK [W6M] reads 2.46; that for YIKVDNQRVEKDMKKAKEQLKIRK [W6N], 3.23.
The result for YIKVDVQRVEKDMKKAKEQLKIRK [W6V] reads 3.49; that for YIKVDWQKVEKDMKKAKEQLKIRK [R8K], 2.01.
In the case of YIKVDWQAVEKDMKKAKEQLKIRK [R8A], the protein stability index was 2.35.
For YIKVDWQGVEKDMKKAKEQLKIRK [R8G], the protein stability index is 1.71.
On to YIKVDWQQVEKDMKKAKEQLKIRK [R8Q], for which the protein stability index came to 1.68.
To YIKVDWQLVEKDMKKAKEQLKIRK [R8L] belongs 2.21; to YIKVDWQVVEKDMKKAKEQLKIRK [R8V], 1.74; to YIKVDWQCVEKDMKKAKEQLKIRK [R8C], 1.04.
To YIKVDWQTVEKDMKKAKEQLKIRK [R8T] belongs 2.21; to YIKVDWQPVEKDMKKAKEQLKIRK [R8P], 2.48.
With YIKVDWQRVEKDMKKAKEQLKIYK [R23Y], the protein stability index turned out to be 1.67.
Regarding YIKVDWQRVEKDMKKAKEQLKITK [R23T], the protein stability index worked out at 2.19.
Regarding YIKVDWQRVEKDMKKAKEQLKIKK [R23K], the protein stability index came to 2.6.
To YIKVDWQRVEKDMKKAKEQLKILK [R23L] belongs 1.6.
To YIKVDWQRVEKDMKKAKEQLKIFK [R23F] belongs 1.57.
In the case of YIKVDWQRVEKDMKKAKEQLKIIK [R23I], the protein stability index turned out to be 2.79.
To YIKVDWQRVEKDMKKAKEQLKISK [R23S] belongs 2.02.
On to YIKVDWQRVEKDMKKAKEQLKINK [R23N], for which the protein stability index was found to be 3.5.
With YIKVDWQRVEKDMKKAKEQLKIQK [R23Q], the protein stability index stood at 2.07.
To YIKVDWQRVEKDMKKAKEQPKIRK [L20P] belongs 1.95; to YIKVDWQRVEKDMKKAKEQVKIRK [L20V], 1.77; to YIKVDWQRVEKDMKKAKEQTKIRK [L20T], 2.62.
To YIKVDWQRVEKDMKKAKEQYKIRK [L20Y] belongs 1.91; to YIKVDWQRVEKDMKKAKEQSKIRK [L20S], 1.52; to YIKVDWQRVEKDMKKAKEQGKIRK [L20G], 1.89.
The result for YIKVDWQRVEKDMKKAKEQQKIRK [L20Q] reads 1.42.
With YIKVDWQRVEKDMKKAKEQAKIRK [L20A], the protein stability index stood at 2.3.
The result for YIKVDWQRVEKDMDKAKEQLKIRK [K14D] reads 1.65; that for YIKVDWQRVEKDMLKAKEQLKIRK [K14L], 2.19; that for YIKVDWQRVEKDMNKAKEQLKIRK [K14N], 1.61.
For YIKVDWQRVEKDMTKAKEQLKIRK [K14T], the protein stability index is 1.92.
As to YIKVDWQRVEKDMMKAKEQLKIRK [K14M], the protein stability index was 1.9.
For the variant YIKVDWQRVEKDMAKAKEQLKIRK [K14A], the protein stability index was 1.6.
As for YIKVDWQRVEKDMQKAKEQLKIRK [K14Q], the protein stability index stood at 1.72.
To YIKVDWQRVEKDMRKAKEQLKIRK [K14R] belongs 2.12; to YIKVDWQRVEKDMWKAKEQLKIRK [K14W], 2.1; to YIKVDWQRVEKDMKKWKEQLKIRK [A16W], 1.94.
Take YIKVDWQRVEKDMKKPKEQLKIRK [A16P]: the protein stability index stood at 2.13.
Consider YIKVDWQRVEKDMKKGKEQLKIRK [A16G], for which the protein stability index turned out to be 1.89.
Consider YIKVDWQRVEKDMKKVKEQLKIRK [A16V], for which the protein stability index turned out to be 1.38.
The result for YIKVDWQRVEKDMKKFKEQLKIRK [A16F] reads 2.16; that for YIKVDWQRVEKDMKKQKEQLKIRK [A16Q], 3; that for YIKVDWQRVEKDMKKYKEQLKIRK [A16Y], 1.98.
To YIKVDWQRVEKDMKKSKEQLKIRK [A16S] belongs 1.75; to YIKVDWQRVEKDMKKHKEQLKIRK [A16H], 2.4.
As for YIKVDWQRVEKDMKKKKEQLKIRK [A16K], the protein stability index turned out to be 1.83.
To YIKVDWQRVEKDMKKMKEQLKIRK [A16M] belongs 1.85.
In the case of YILVDWQRVEKDMKKAKEQLKIRK [K3L], the protein stability index is 1.67.
As for YINVDWQRVEKDMKKAKEQLKIRK [K3N], the protein stability index was determined as 2.22.
Regarding YICVDWQRVEKDMKKAKEQLKIRK [K3C], the protein stability index came out at 2.86.
To YISVDWQRVEKDMKKAKEQLKIRK [K3S] belongs 1.88; to YIDVDWQRVEKDMKKAKEQLKIRK [K3D], 4.58.
With YIFVDWQRVEKDMKKAKEQLKIRK [K3F], the protein stability index is 1.98.
Turning to YIVVDWQRVEKDMKKAKEQLKIRK [K3V], the protein stability index stood at 2.79.
The result for YIAVDWQRVEKDMKKAKEQLKIRK [K3A] reads 2.13; that for YIPVDWQRVEKDMKKAKEQLKIRK [K3P], 2.07.
As to YRKVDWQRVEKDMKKAKEQLKIRK [I2R], the protein stability index was 2.53.
Take YGKVDWQRVEKDMKKAKEQLKIRK [I2G]: the protein stability index is 3.6.
As for YVKVDWQRVEKDMKKAKEQLKIRK [I2V], the protein stability index stood at 1.83.
To YMKVDWQRVEKDMKKAKEQLKIRK [I2M] belongs 4.03; to YLKVDWQRVEKDMKKAKEQLKIRK [I2L], 2.26.
Turning to YNKVDWQRVEKDMKKAKEQLKIRK [I2N], the protein stability index is 3.6.
To YSKVDWQRVEKDMKKAKEQLKIRK [I2S] belongs 3.37; to YIKVDWQRVEKDMKKAHEQLKIRK [K17H], 1.94.
The result for YIKVDWQRVEKDMKKAVEQLKIRK [K17V] reads 1.64; that for YIKVDWQRVEKDMKKASEQLKIRK [K17S], 2.62.
The result for YIKVDWQRVEKDMKKAAEQLKIRK [K17A] reads 1.64.
For YIKVDWQRVEKDMKKATEQLKIRK [K17T], the protein stability index stood at 1.62.
Regarding YIKVDWQRVEKDMKKAIEQLKIRK [K17I], the protein stability index was found to be 1.71.
Regarding YIKVDWQRVEKDMKKACEQLKIRK [K17C], the protein stability index stood at 2.19.
As to YIKVDWQRVEKDMKKAFEQLKIRK [K17F], the protein stability index was 2.62.
To YIKVDWQRVEKDMKKAPEQLKIRK [K17P] belongs 1.79.
